This is an account of results in patent US20180312587A1 (ADURO BIOTECH HOLDINGS EUROPE B V, published 2018).

Changes are numbered by the printed parent chain. Numbers in names are those of the source.

As a reminder, the EC50 is the concentration needed to bring the measured effect to its halfway point.

The target of one assay is T1, human SIRPα variant 2 (human, UniProt P78324 31-504).
T1 construct: full length ORF on transfected CHO-K1 cells; also called hSIRPαV2; SIRPαV2
The experiment in a line: CELISA, CHO-K1 transfectants; average of two experiments. On the procedure:
(§1) Binding of the humanized antibodies to hSIRPα was studied in CELISA format. Binding of the hSIRPα antibodies to human SIRPαV1, SIRPαV2, hSIRPβ1, and hSIRPγ was confirmed using CHO-K1 cells that had been transiently transfected with cDNA encoding the full length open reading frame of each of these respective targets subcloned into the pCI-neo vector. CHO-K1.hSIRPαV1, CHO-K1.hSIRPαV2, CHO-K1.hSIRPβ1, and CHO-K1.hSIRPγ cells were seeded in culture medium (DMEM-F12 (Gibco) supplemented with 5% New Born Calf Serum (BioWest) and Pen/Strep (Gibco)) in 96-well flat-bottom tissue culture plates and incubated at 37° C., 5% CO₂ and 95% humidity until cell layers were confluent. Subsequently, culture medium was removed and cells were incubated for 1 hour at 37° C., 5% CO₂ and 95% humidity with purified hSIRPα antibodies (10 μg/mL and dilutions thereof). Next, cells were washed with PBS-T and incubated for 1 hour at 37° C., 5% CO₂ and 95% humidity with goat-anti-human IgG-HRP conjugate (Jackson Immuno Research) or goat-anti-mouse IgG-HRP (Southern Biotech). Subsequently, cells were washed three times with PBS-T and anti-hSIRPα immunoreactivity was visualized with TMB Stabilized Chromogen (Invitrogen). Reactions were stopped with 0.5 M H₂SO₄ and absorbances were read at 450 and 610 nm. […] In Table 13 the EC50 values of the humanized hSIRPα antibodies are depicted.
(§2) Table 13: Binding of humanized and parental hSIRPα.50A antibodies to CHO-K1.hSIRPαV1, CHO-K1.hSIRPαV2, CHO-K1.hSIRPβ1, and CHO-K1.hSIRPγ cells.

Another assay has as its target T2, human SIRPα variant 1 (human, UniProt P78324 31-504).
T2 construct: full length ORF on transfected CHO-K1 or HEK293 cells; entry includes the signal peptide; also called hSIRPαV1; SIRPαV1
The description is as above. As for the experimental part: as §1, §2

The target of a further assay is T3, human SIRPγ (human, UniProt Q9P1W8 29-387).
T3 construct: on transfected CHO-K1 cells; also called hSIRPγ
T3 sequence (Q9P1W8 29-387 limits assumed): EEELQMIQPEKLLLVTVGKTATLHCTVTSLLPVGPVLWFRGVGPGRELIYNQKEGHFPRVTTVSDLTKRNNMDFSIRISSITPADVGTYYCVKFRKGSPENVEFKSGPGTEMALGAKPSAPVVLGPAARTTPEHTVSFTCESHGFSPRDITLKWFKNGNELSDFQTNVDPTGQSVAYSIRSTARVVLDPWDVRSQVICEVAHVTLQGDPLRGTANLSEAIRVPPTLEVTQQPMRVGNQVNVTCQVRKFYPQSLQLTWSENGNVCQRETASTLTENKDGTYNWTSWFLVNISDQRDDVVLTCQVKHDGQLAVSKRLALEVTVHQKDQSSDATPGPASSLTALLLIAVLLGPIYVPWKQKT
Kind of assay: CELISA, CHO-K1 transfectants; extrapolated. As for the experimental part:
as §1, §2

In the next assay the target is T4, human SIRPβ1 (human, UniProt O00241 30-398).
T4 construct: also called hSIRPβ1
T4 sequence (O00241 30-398 limits assumed): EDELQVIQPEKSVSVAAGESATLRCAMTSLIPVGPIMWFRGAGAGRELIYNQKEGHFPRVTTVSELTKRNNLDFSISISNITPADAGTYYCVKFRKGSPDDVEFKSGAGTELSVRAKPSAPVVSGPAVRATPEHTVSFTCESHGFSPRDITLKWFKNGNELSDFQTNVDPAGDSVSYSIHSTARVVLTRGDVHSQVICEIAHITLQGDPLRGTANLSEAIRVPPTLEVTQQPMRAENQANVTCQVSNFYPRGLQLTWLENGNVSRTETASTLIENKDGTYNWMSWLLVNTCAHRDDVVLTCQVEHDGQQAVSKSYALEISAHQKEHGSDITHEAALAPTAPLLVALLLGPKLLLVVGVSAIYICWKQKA
Kind of assay: CELISA, CHO-K1 transfectants; nd = not detected. On the procedure:
as §1, §2

T2 sequence (P78324 31-504 limits assumed, change not shown): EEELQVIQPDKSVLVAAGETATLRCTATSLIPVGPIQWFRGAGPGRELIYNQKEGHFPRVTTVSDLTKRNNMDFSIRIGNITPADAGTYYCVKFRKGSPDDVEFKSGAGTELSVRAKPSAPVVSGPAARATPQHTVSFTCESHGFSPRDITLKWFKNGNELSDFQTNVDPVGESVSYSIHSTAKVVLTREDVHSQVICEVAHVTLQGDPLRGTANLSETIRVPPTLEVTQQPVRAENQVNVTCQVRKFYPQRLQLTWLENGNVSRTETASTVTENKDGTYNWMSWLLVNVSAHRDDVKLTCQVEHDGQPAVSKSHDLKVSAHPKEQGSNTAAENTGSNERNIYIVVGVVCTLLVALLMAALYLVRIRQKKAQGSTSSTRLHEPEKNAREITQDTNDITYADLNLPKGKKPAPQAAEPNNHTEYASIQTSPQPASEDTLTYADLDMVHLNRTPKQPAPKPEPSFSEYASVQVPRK
T1 sequence (P78324 other isoform, or with tags, fused parts or gaps mutant limits assumed): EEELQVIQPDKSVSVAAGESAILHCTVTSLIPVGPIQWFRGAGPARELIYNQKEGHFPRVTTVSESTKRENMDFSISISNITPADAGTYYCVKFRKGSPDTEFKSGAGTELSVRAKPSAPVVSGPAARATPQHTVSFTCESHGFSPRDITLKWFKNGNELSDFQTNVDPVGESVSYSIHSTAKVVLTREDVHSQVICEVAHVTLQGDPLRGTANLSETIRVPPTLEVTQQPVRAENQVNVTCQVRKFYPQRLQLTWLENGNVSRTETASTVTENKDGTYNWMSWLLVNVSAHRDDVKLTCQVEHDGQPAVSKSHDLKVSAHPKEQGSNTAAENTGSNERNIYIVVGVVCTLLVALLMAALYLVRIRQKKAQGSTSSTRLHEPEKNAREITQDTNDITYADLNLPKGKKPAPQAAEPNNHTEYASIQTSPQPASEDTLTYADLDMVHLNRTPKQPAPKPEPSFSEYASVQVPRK

B1: hSIRPα.50A.H4L4 (antibody, human IgG4 S228P, kappa, V domains shown)
VH: EVQLQQSGAELVKPGASVKVSCKASGFTFTNYYIHWVRQRPGQGLEWMGWIYPGNVNTKYNEKFKAKATITADKSTSTAYMELSSLTSEDTAVYYCARPTIIATDFDVWGQGTTVTVSS
VL: DIQMTQSPSSLSASVGDRVTITCKASQGVGTAVGWYQKKPGKVPKLLIYWASTRHTGVPDRFSGSGSGTDFTLTINGLQPEDVATYYCQQYSTYPFTFGGGTKLEIKR
notes: human IgG4 S228P, kappa; also called hSIRPα.50H4L4
For the molecule B1, the EC50 with human SIRPα variant 2 is 1.24 nM; with human SIRPα variant 1, 1.2 nM; with human SIRPγ, 1.98 nM. Moreover, in the assay with human SIRPβ1, the binding result was “no binding (tested: 10 µg/mL and dilutions thereof)”.

B2: hSIRPα.50A.H5L4 (antibody, human IgG4 S228P, kappa, V domains shown)
VH: EVQLVQSGAEVVKPGASVKVSCKASGFTFTNYYIHWVRQAPEQGLEWIGWIYPGNVNTKYNEKFKARVTMTADKSTSTAYMELSSLRSDDMAVYYCARPTIIATDFDVWGQGTTVTVSS
VL: B1 VL
notes: human IgG4 S228P, kappa; also called hSIRPα.50H5L4
For the molecule B2, the EC50 with human SIRPα variant 2 was 1.11 nM; with human SIRPα variant 1, 1.17 nM; with human SIRPγ, 4.03 nM. The binding result in the assay with human SIRPβ1 is “no binding (tested: 10 µg/mL and dilutions thereof)”.

B3: hSIRPα.50A.H4L5 (antibody, human IgG4 S228P, kappa, V domains shown)
VH: B1 VH
VL: B1 VL with Q3V, M4L, S10F, K38Q, V43S, D70E, N76S, G77N, V83F, T85A
notes: human IgG4 S228P, kappa; also called hSIRPα.50H4L5
Regarding B3, the values for the EC50 with human SIRPα variant 2, with human SIRPα variant 1 and with human SIRPγ were 0.661 nM, 0.701 nM and 0.808 nM, respectively. Moreover, in the assay with human SIRPβ1, the binding result is “no binding (tested: 10 µg/mL and dilutions thereof)”.

B4: hSIRPα.50A.H3L3 (antibody, human IgG4 S228P, kappa, V domains shown)
VH: EVQLVQSGAEVVKPGASVMISCKASGFTFTNYYIHWVRQRPGQGLEWIGWIYPGNVNTKYNEKFKARVIMTADKSTSTVYMQLSSLTSEDTAVYYCARPTIIATDFDVWGQGTLVTVSS
VL: ELVMTQSPSSLSASVGDRVTITCKASQGVGTAVGWYQQKPGKAPKLLIYWASTRHTGVPDRFSGSGSGTDFTLAISSLQPEDIADYYCQQYSTYPFTFGGGTKVEIKR
notes: human IgG4 S228P, kappa; also called hSIRPα.50H3L3
Regarding B4, the values for the EC50 with human SIRPα variant 2, with human SIRPα variant 1 and with human SIRPγ were 1.16 nM, 1.16 nM and 2.47 nM, respectively. Also, in the assay with human SIRPβ1, the binding result is “no binding (tested: 10 µg/mL and dilutions thereof)”.

B5: hSIRPα.50A.H4L1 (antibody, human IgG4 S228P, kappa, V domains shown)
VH: B1 VH
VL: B4 VL with E1D, L2I, M4L, S10F, D70E, A74T, I83F, D85A, V104L
notes: human IgG4 S228P, kappa; also called hSIRPα.50H4L1
For the molecule B5, the values for the EC50 in the assay with human SIRPα variant 2, with human SIRPα variant 1 and with human SIRPγ were 0.681 nM, 0.683 nM and 0.95 nM, respectively. Also, the binding result in the assay with human SIRPβ1 was “no binding (tested: 10 µg/mL and dilutions thereof)”.

B6: hSIRPα.50A.H3L4 (antibody, human IgG4 S228P, kappa, V domains shown)
VH: B4 VH
VL: B1 VL
notes: human IgG4 S228P, kappa; also called hSIRPα.50H3L4
For the molecule B6, the EC50 with human SIRPα variant 2 is 1.52 nM; in the assay with human SIRPα variant 1, 1.26 nM; in the assay with human SIRPγ, 5.17 nM. Further, the binding result with human SIRPβ1 was “no binding (tested: 10 µg/mL and dilutions thereof)”.

B7: hSIRPα.50A.H3L5 (antibody, human IgG4 S228P, kappa, V domains shown)
VH: B4 VH
VL: B1 VL with Q3V, M4L, S10F, K38Q, V43S, D70E, N76S, G77N, V83F, T85A
notes: human IgG4 S228P, kappa; also called hSIRPα.50H3L5
As to B7, the EC50 is 0.868 nM in the assay with human SIRPα variant 2, 0.878 nM in the assay with human SIRPα variant 1 and 1.2 nM with human SIRPγ. Also, the binding result with human SIRPβ1 is “no binding (tested: 10 µg/mL and dilutions thereof)”.
